According to patent US20220160891A1 (Johns Hopkins, published 2022):
Like-named read-outs stand apart in the source and are kept apart here.

Experiments:
[1] = target: biotinylated human IL-2Ralpha extracellular domain (residues 1-214) (human) (UniProt P01589); experiment: bio-layer interferometry equilibrium titration on immobilized hIL-2Rα, response MW normalized
[2] = target: T1, yeast surface-displayed human IL-2 (residues 1-133) (human, UniProt P60568 21-153); experiment: yeast surface titration on hIL-2-displaying yeast, flow cytometry, normalized MFI
T1 construct: also called hIL-2; not shown: yeast display anchor encoded by the pCT302 vector
T1 sequence (P60568 21-153): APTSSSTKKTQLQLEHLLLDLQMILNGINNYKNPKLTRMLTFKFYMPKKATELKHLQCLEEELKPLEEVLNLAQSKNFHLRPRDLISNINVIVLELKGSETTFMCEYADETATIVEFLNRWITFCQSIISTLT
Procedure: (§1) Yeast surface binding studies. […] Cells were then washed and stained with a 1:200 dilution of Alexa647-conjugated streptavidin (Thermo) in PBSA for 15 minutes at 4° C. After a final wash, cells were analyzed for antibody binding using a CytoFLEX flow cytometer (Beckman Coulter). Background-subtracted and normalized binding curves were fitted to a first-order binding model and equilibrium dissociation constant (KD) values were determined using GraphPad Prism.
(§2) A rapid small-scale HEK 293F cell transfection assay was developed to optimize immunocytokine expression. […] After a 3-day incubation, secreted protein was captured from the supernatant with protein G resin, eluted with 0.1 M glycine pH 2.0, and analyzed via SDS-PAGE. […] Immunocytokine expression was scaled up in HEK 293F cells and the secreted protein was purified via protein G affinity chromatography followed by size-exclusion chromatography.

[3] = target: T2, yeast surface-displayed mouse IL-2 (residues 1-149) (mouse, UniProt P04351 21-169); experiment: yeast surface titration on mIL-2-displaying yeast, flow cytometry, normalized MFI
T2 construct: range 1-149; also called mIL-2; not shown: yeast display anchor encoded by the pCT302 vector
T2 sequence (looked up): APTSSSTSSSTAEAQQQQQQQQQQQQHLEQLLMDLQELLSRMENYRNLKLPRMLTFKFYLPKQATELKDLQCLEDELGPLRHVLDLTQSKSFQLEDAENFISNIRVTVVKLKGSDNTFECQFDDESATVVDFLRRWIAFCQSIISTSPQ

[4] = target: T1, yeast surface-displayed human IL-2 …; experiment: yeast surface display titration of soluble antibody, flow cytometry; apparent bivalent affinity
Procedure: as §1, §2

[5] = target: T1, yeast surface-displayed human IL-2 …; experiment: yeast surface titration on hIL-2-displaying yeast, flow cytometry, normalized MFI; remark: listed apart in the source
Procedure: as §1

[6] = target: T3, biotinylated human IL-2 immobilized on streptavidin-coated tips (human, UniProt P60568 21-153, biotinylated (site not stated)); experiment: bio-layer interferometry equilibrium titration on immobilized hIL-2, response MW normalized
T3 construct: also called biotinylated hIL-2; immobilized hIL-2; not shown: tags and biotinylation site of the biotinylated hIL-2 construct are not described (the BAP tag is described only for hIL)
T3 sequence (P60568 21-153): as the sequence (P60568 21-153) above
Procedure: (§3) Bio-layer interferometry binding studies. […] Less than 5 signal units (nm) of receptor was immobilized to minimize mass transfer effects. […] An irrelevant protein was included in a reference well to subtract non-specific binding. Surface regeneration for all interactions was conducted using a 15 second exposure to 0.1 M glycine pH 3.0. Experiments were carried out in PBSA (phosphate-buffered saline, pH 7.3 plus 0.1% bovine serum albumin (BSA, Thermo Fisher Scientific)) at 25° C. Data was visualized and processed using the Octet® Data Analysis software version 7.1 (Molecular Devices). Equilibrium titration curve fitting and KD value determination was implemented using GraphPad Prism, assuming all binding interactions to be first order.

[7] = target: T3, biotinylated human IL-2 immobilized on …; experiment: as above; remark: listed apart in the source
Procedure: as §3

With “hIL-2/F5111 complex (from UniProt P60568 21-153)” the EC50 (read off the curve) [1] was 8 nM.

Work on “human IL-2 cytokine (residues 1-133), soluble, C-terminal hexahistidine tag (from UniProt P60568 21-153) (ligand)” yielded an EC50 (read off the curve) [1] of 5 nM.

B1: recombinant F5111 antibody (human IgG1 lambda) (antibody, V domains shown)
VH: QLQLQESGPGLVKPSQTLSLTCTVSGGSISSGGYYWSWIRQHPGKGLEWIGYIYYSGSTYYNPSLKSRVTISVDTSKNQFSLKLSSVTAADTAVYYCARTPTVTGDWFDPWGRGTLVTVSS
VL: NFMLTQPHSVSESPGKTVTISCTRSSGSIASNYVQWYQQRPGSSPTTVIYEDNQRPSGVPDRFSGSIDSSSNSASLTISGLKTEDEADYYCQSYDSSNVVFGGGTKLTVLG
notes: also called F5111 Ab; monoclonal antibody F5111
B1 was tested, and the Kd [2] was 0.42 nM, the binding result [3] was “no binding (tested: about 1e-7 M)” and the Kd [4] was 0.43 nM. The “EC50 (read off the curve)” value [5] was about 0.08 nM, the “EC50 (read off the curve)” value [6] was about 0.6 nM and the “EC50 (read off the curve)” value [7] was about 3 nM.
